Data reported in patent US5354676A, “Recombinant modified thermostable NAD-dependent dehydrogenases and process for their production” (The University of Bristol, priority 1989, dated 1994).
Where a chain is given by its changes, count along the chain named. Names may count otherwise.

Key:
Experiment in all cases: purified protein, by the assay type
[1] = substrate: CC(=O)C(=O)O; assay type: biochemical, Bacillus stearothermophilus; conditions: other: WT, No FBP, pH 6
Method: (§1) Steady-state reaction rates were determined by following the change in A340 due to the consumption of NADH. […] The buffer for all experiments was 100rmM triethanolamine-HC1/NaOH,pH 6.

[2] = substrate: NC(=O)C1=CN([C@@H]2O[C@H](COP(=O)(O)OP(=O)(O)OC[C@H]3O[C@@H](n4cnc5c(N)ncnc54)[C@H](O)[C@@H]3O)[C@@H](O)[C@H]2O)C=CC1; assay type: biochemical, Bacillus stearothermophilus; conditions: other: WT; in the presence of 0.5 mM pyruvate; pH 6.0
Method: as §1

[3] = substrate: NC(=O)C1=CN([C@@H]2O[C@H](COP(=O)(O)OP(=O)(O)OC[C@H]3O[C@@H](n4cnc5c(N)ncnc54)[C@H](O)[C@@H]3O)[C@@H](O)[C@H]2O)C=CC1; assay type: biochemical; conditions: in the presence of 0.5 mM pyruvate, pH 6.0
Method: as §1

[4] = substrate: CC(=O)C(=O)O; assay type: biochemical; conditions: other: MVS, No FBP, pH 6
Method: as §1

[5] = substrate: NC(=O)C1=CN([C@@H]2O[C@H](COP(=O)(O)OP(=O)(O)OC[C@H]3O[C@@H](n4cnc5c(N)ncnc54)[C@H](O)[C@@H]3O)[C@@H](O)[C@H]2O)C=CC1; conditions: other: GG; in the presence of 0.5 mM pyruvate; pH 6.0
Method: as §1

B1: Bacillus stearothermophilus NAD-dependent L-lactate dehydrogenase, wild type (WT) (Geobacillus stearothermophilus) (protein)
chain: MKNNGGARVVVIGAGFVGASYVFALMNQGIADEIVLIDANESKAIGDAMDFNHGKVFAPKPVDIWHGDYDDCRDADLVVICAGANQKPGETRLDLVDKNIAIFRSIVESVMASGFQGLFLVATNPVDILTYATWKFSGLPHERVIGSGTILDTARFRFLLGEYFSVAPQNVHAYIIGEHGDTELPVWSQAYIGVMPIRKLVESKGEEAQKDLERIFVNVRDAAYQIIEKKGATYYGIAMGLARVTRAILHNENAILTVSAYLDGLYGERDVYIGVPAVINRNGIREVIEIELNDDEKNRFHHSAATLKSVLARAFTR
notes: made in house; host or cells: E. coli
With B1 the Km [1] was 3000 µM, the kcat/Km [1] was 83000 M⁻¹ s⁻¹ and the Km [2] was 18 µM.

B2: Bacillus stearothermophilus L-lactate dehydrogenase variant MVS/GG (102-5 QKP→MVS and 235-6 AA→GG) (Geobacillus stearothermophilus; A222G/A223G/K87V/P88S/Q86M) (protein)
chain: B1 chain with Q86M, K87V, P88S, A222G, A223G
notes: made in house; host or cells: E. coli TG2, vector pKK223-3
B2 was tested, and the Km ([3]; other: MVS/GG) was 14.5 µM.

B3: Bacillus stearothermophilus L-lactate dehydrogenase variant MVS (102-5 QKP→MVS) (Geobacillus stearothermophilus; K87V/P88S/Q86M) (protein)
chain: B1 chain with Q86M, K87V, P88S
notes: as for B2
B3 showed a Km [4] of 15000 µM, a kcat [4] of 61 s⁻¹ and a kcat/Km [4] of 4100 M⁻¹ s⁻¹. For the same protein, the Km ([3]; other: MVS) was 14.5 µM.

B4: Bacillus stearothermophilus L-lactate dehydrogenase variant GG (235-6 AA→GG) (Geobacillus stearothermophilus; A222G/A223G) (protein)
chain: B1 chain with A222G, A223G
B4 showed a Km [5] of 18 µM.
